Assay results taken from patent US20170051040A1 (UNIVERSITE PIERRE ET MARIE CURIE PARIS 6, published 2017).
Non-standard residues stand in square brackets, D forms with d. No end group written: not given here.

Target: CCR2 on mouse monocytes (mouse, UniProt P51683 1-373)
Assay: cell-based or functional assay

Chain of CCR2 on mouse monocytes (P51683 whole entry): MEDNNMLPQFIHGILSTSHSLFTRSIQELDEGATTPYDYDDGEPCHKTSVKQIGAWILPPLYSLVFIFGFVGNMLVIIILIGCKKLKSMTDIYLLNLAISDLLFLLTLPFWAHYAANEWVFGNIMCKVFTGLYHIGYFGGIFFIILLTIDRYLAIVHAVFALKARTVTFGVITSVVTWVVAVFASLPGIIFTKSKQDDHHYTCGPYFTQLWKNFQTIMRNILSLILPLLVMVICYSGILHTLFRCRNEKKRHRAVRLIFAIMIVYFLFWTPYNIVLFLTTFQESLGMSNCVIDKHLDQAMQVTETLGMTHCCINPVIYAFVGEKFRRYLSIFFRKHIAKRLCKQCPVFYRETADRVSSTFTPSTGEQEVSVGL

[dL]G[dT][dF][dL][dK][dC] [ECL1 (C) inverso]
inhibition of migration of mouse monocytes and classical monocytes, IC50: 2 µM
